What is called stoichiometry N is the number of molecules, sites or subunits per partner or assembly.

The record followed here is PMC6538622.

Test [1] has as its target Acinetobacter baumannii RNase E N-terminal catalytic domain (Acinetobacter baumannii). Nature of the test: SEC. On the technique in general: In gel filtration, larger molecules generally elute earlier.
The target is the same in test [2]. The experiment in a line: SEC-SAXS; 5-10 mg/ml protein in 10 mM DTT, 10 mM MgCl2, 0.5 M NaCl, 20 mM Tris pH 8; KW403-4F size-exclusion column, B21 beamline (Diamond Light Source); molecular mass from I(0).
In test [3] the target is Francisella tularensis RNase E N-terminal catalytic domain (Francisella tularensis) (UniProt Q5NFK7). The experiment in a line: SEC-SAXS.
Test [4] shares this target. The experiment in a line: SEC.
Test [5] concerns the target Yersinia pestis RNase E N-terminal catalytic domain (Yersinia pestis). The experiment in a line: SEC-SAXS.
Test [6] shares this target. Nature of the test: SEC.

Take “Acinetobacter baumannii RNase E N-terminal catalytic domain (domain or fragment)”: the stoichiometry N in test [1] and in test [2] was 4 throughout.
Take “Francisella tularensis RNase E N-terminal catalytic domain (from UniProt Q5NFK7 1-543) (domain or fragment)”: the stoichiometry N in test [3] and in test [4] was 4 each time.
Regarding “Yersinia pestis RNase E N-terminal catalytic domain (from UniProt A0AAX2HZU4 1-529) (domain or fragment)”, the stoichiometry N in test [5] and in test [6] was 4 in each case.
